Reference: US20190160076A1 (University of California, published 2019)

Target: T1, V5-tagged human lipoprotein lipase (LPL) (human, UniProt P06858 28-475)
T1 construct: also called V5-tagged human LPL; V5-LPL; not shown: V5 tag
T1 sequence: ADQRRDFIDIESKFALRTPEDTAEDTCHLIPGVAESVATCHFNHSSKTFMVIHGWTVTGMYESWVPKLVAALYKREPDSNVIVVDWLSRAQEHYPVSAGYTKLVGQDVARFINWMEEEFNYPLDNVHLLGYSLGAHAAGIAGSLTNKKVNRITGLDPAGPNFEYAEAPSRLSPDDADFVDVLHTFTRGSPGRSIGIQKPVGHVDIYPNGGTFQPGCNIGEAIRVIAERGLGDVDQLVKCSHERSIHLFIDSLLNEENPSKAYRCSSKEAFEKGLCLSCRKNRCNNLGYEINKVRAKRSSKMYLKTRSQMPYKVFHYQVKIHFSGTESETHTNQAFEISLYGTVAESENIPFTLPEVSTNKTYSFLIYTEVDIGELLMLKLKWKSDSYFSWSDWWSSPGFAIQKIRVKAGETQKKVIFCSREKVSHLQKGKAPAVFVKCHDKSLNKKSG
Experiment: cell-based LPL binding, western blot of CHO cell extracts (FIG. 4A)
Description: FIG. 4A-B. GPIHBP1 Autoantibodies Block the Binding of LPL to GPIHBP1. […] The LPL used in these experiments was V5-tagged. Western blots were performed with a goat antibody against the S-protein tag (Abcam, 5 μg/ml), followed by an IRDye 680-donkey anti-goat IgG (LI_COR, 1:2000; GPIHBP1) and an IRDye 800-V5 antibody (1:500; LPL). Actin was used as a loading control, and was detected with a rabbit antibody against actin (Abcam, 5 μg/ml) followed by an IRDye 800-donkey anti-rabbit IgG (LI-COR, 1:2000; lower panel). […] In lane 5, pre-incubation of cells with plasma 38 (1:20) abolished LPL binding. […] In lane 2, a mutant GPIHBP1 (GPIHBP1-W109S), which lacks the ability to bind LPL, was included as a control. […] DNA was stained with DAPI (fourth column).
Expression vectors for S-protein-tagged wild-type (wt) GPIHBP1, GPIHBP1-G175R, and GPIHBP1-W109S (or the empty vector) were transfected into CHO pgsA-745 cells or human umbilical vein endothelial cells (HUVEC). After 1 day, the cells were washed three times in PBS and incubated for 1 h at 4° C. with V5-tagged human LPL (900 ng/well). Then the cells were washed six times in PBS, and cell lysates were collected in RIPA buffer (Sigma) containing a protease inhibitor cocktail (Roche). […]

binding result: binds
B1: S-protein-tagged wild-type human GPIHBP1 (GPIHBP1-wt) expressed on transfected CHO pgsA-745 cells (receptor)
chain: QTQQEEEEEDEDHGPDDYDEEDEDEVEEEETNRLPGGRSRVLLRCYTCKSLPRDERCNLTQNCSHGQTCTTLIAHGNTESGLLTTHSTWCTDSCQPITKTVEGTQVTMTCCQSSLCNVPPWQSSRVQDPTG
notes: also called GPIHBP1-transfected cells; GPIHBP1-expressing cells; not shown: S-protein tag
